In patent US20080085863A1 (WISCONSIN ALUMNI RESEARCH FOUNDATION, published 2008):

How the values were obtained:
[1] = molecular target: T1, Flag-tagged recombinant bone morphogenetic protein-1 (BMP-1) (UniProt P13497-2 121-730, limits assumed); test: cell-based or functional assay
T1 sequence (looked up): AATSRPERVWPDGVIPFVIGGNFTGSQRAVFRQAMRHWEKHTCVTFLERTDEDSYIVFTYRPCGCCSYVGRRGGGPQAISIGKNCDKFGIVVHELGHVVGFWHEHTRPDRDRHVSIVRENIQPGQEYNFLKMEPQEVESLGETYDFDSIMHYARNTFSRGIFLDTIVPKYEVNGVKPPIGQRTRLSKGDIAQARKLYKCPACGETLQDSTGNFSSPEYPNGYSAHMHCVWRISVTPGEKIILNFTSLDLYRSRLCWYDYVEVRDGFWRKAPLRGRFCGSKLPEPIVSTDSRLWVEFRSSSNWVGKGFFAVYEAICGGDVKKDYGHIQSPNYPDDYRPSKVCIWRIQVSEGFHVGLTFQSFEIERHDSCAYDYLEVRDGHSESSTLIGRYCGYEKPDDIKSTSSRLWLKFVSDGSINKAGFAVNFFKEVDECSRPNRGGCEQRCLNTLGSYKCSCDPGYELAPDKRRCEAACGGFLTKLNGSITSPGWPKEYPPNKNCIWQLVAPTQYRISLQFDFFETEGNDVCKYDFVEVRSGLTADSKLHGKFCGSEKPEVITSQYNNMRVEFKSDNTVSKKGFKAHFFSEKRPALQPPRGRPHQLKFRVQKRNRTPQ

[2] = molecular target: T1, Flag-tagged recombinant bone …; test: time course of covalent complex formation of 40 nM 35S-BMP-1 with increasing b-α2M, SDS-PAGE densitometry (method of Enghild et al.)
Procedure: (§1) 40 nM ³⁵S-labeled BMP-1 was incubated with 20, 40, 80, 160, and 240 nM plasma α₂M, or recombinant wild type α₂M or with 5, 10, 20, 40, and 80 nM b-α₂M at 37° C. in 50 mM Tris-HCl, pH 7.5, 100 mM NaCl and 10 mM CaCl₂. Reactions were stopped at 10, 30, 60, 90 and 120 minutes (plasma α₂M and recombinant wild type α₂M), or at 2, 5, 10, 20 and 30 minutes (b-α₂M) by adding. SDS-PAGE sample buffer and boiling 5 minutes at 95° C. Protein samples were separated on 7.5% acrylamide SDS-PAGE gels, which were then treated with EN³HANCE (DuPont) and exposed to film. Percentages of BMP-1 incorporated into high molecular weight complexes were determined by densitometry and kinetic parameters were determined essentially via the method of Enghild J, et al, “Interaction of human rheumatoid synovial collagenase (matrix metalloproteinase 1) and stromelysin (matrix metalloproteinase 3) with human alpha 2-macroglobulin and chicken ovostatin. Binding kinetics and identification of matrix metalloproteinase cleavage sites,” J. Biol. Chem. 264:8779-8785 (1989).
(§2) To obtain a quantitative comparison of the rates of interaction of BMP-1 with the various wild type and mutant forms of α₂M, we employed the methodology of Enghild et al., supra, which involves quantification of covalent proteinase-α₂M complex formation, subsequent to incubation of radiolabeled proteinase with α₂M.

[3] = molecular target: T1, Flag-tagged recombinant bone …; test: ratio of second order rate constants, 35S-BMP-1 complex formation
Procedure: as §1, §2

- pCP inhibitory activity, IC50 [1]: 1.88 nM
- α2M inhibition of BMP-1 (fold enhancement over the native bait region) [1]: ~25 fold
- Ki [2]: 36.4 nM
- Relative effectiveness (against recombinant α2M = 1) [3]: 23.7 fold
- fold more effective in interacting with BMP-1 than wild type α2M from plasma (second order rate constants) [3]: 15.7 fold
B1: recombinant mutant α2-macroglobulin with the native bait region replaced by sequences flanking the human probiglycan BMP-1 cleavage site (b-α2M) (other)
chain: DYKDDDDKSVSGKPQYMVLVPSLLHTETTEKGCVLLSYLNETVTVSASLESVRGNRSLFTDLEAENDVLHCVAFAVPKSSSNEEVMFLTVQVKGPTQEFKKRTTVMVKNEDSLVFVQTDKSIYKPGQTVKFRVVSMDENFHPLNELIPLVYIQDPKGNRIAQWQSFQLEGGLKQFSFPLSSEPFQGSYKVVVQKKSGGRTEHPFTVEEFVLPKFEVQVTVPKIITILEEEMNVSVCGLYTYGKPVPGHVTVSICRKYSDASDCHGEDSQAFCEKFSGQLNSHGCFYQQVKTKVFQLKRKEYEMKLHTEAQIQEEGTVVELTGRQSSEITRTITKLSFVKVDSHFRQGIPFFGQVRLVDGKGVPIPNKVIFIRGNEANYYSNATTDEHGLVQFSINTTNVMGTSLTVRVNYKDRSPCYGYQWVSEEHEEAHHTAYLVFSPSKSFVHLEPMSHELPCGHTQTVQAHYILNGGTLLGLKKLSFYYLIMAKGGIVRTGTHGLLVKQEDMKGHFSISIPVKSDIAPVARLLIYAVLPTGDVIGDSAKYDVENCLANKVDLSFSPSQSLPASHAHLRVTAAPQSVCALRAVDQSVLLMKPDAELSASSVYNLLPEKDLTGFPGPLNDQDDEDCINRHNVYINGITYTPVSSTNEKDMYSFLEDMGLKAFTNSKIRKPKMCPQFWDFTLDDGPFMMNDEEASGADTSGVLDPDSVTPTYSAMVRKYFPETWIWDLVVVNSAGVAEVGVTVPDTITEWKAGAFCLSEDAGLGISSTASLRAFQPFFVELTMPYSVIRGEAFTLKATVLNYLPKCIRVSVQLEASPAFLAVPVEKEQAPHCICANGRQTVSWAVTPKSLGNVNFTVSAEALESQELCGTEVPSVPEHGRKDTVIKPLLVEPEGLEKETTFNSLLCPSGGEVSEELSLKLPPNVVEESARASVSVLGDILGSAMQNTQNLLQMPYGCGEQNMVLFAPNIYVLDYLNETQQLTPEIKSKAIGYLNTGYQRQLNYKHYDGSYSTFGERYGRNQGNTWLTAFVLKTFAQARAYIFIDEAHITQALIWLSQRQKDNGCFRSSGSLLNNAIKGGVEDEVTLSAYITIALLEIPLTVTHPVVRNALFCLESAWKTAQEGDHGSHVYTKALLAYAFALAGNQDKRKEVLKSLNEEAVKKDNSVHWERPQKPKAPVGHFYEPQAPSAEVEMTSYVLLAYLTAQPAPTSEDLTSATNIVKWITKQQNAQGGFSSTQDTVVALHALSKYGAATFTRTGKAAQVTIQSSGTFSSKFQVDNNNRLLLQQVSLPELPGEYSMKVTGEGCVYLQTSLKYNILPEKEEFPFALGVQTLPQTCDEPKAHTSFQISLSVSYTGSRSASNMAIVDVKMVSGFIPLKPTVKMLERSNHVSRTEVSSNHVLIYLDKVSNQTLSLFFTVLQDVPVRDLKPAIVKVYDYYETDEFAIAEYNAPCSKDLGNA
modifications: One subunit is given; cross-linking showed that the protein forms tetramers. The internal thioester and glycosylation are not carried by the letters.
notes: also called recombinant b-α2M; modified α2M
